Ends that are not written are not given here.
T1: BSA-Compound 1 (human CCR4 extracellular region peptide Compound 1 conjugated with BSA) (human, also: conjugated to BSA through SMCC, site not given here)
T1 construct: the claims speak of positions 13 to 29; ELISA antigen; also called CCR4 partial peptide
T1 peptide: DESIYSNYYLYESIPKPC

T2: biotinylated Compound 1 (biotinylated CCR4 partial peptide) (human, also: biotinylated, site not given here)
T2 construct: Same peptide as in BSA-Compound 1
T2 peptide: DESIYSNYYLYESIPKPC

T3: human CC chemokine receptor 4 (CCR4) on CCR4/EL-4 cells (human, UniProt P51679 1-360)
T3 construct: also called hCCR4; human CCR4-high-expressing cell
T3 sequence: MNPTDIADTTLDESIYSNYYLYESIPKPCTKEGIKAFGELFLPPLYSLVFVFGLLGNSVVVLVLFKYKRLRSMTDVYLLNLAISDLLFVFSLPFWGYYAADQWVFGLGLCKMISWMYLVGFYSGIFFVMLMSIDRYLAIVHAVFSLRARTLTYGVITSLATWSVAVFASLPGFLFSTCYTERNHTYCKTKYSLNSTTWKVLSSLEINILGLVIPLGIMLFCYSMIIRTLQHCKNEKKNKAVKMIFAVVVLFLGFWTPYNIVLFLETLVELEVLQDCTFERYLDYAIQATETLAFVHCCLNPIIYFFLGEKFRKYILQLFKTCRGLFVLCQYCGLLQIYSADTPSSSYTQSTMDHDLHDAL


Columns and labels:
[1] = target: T1, BSA-Compound 1 (human CCR4 …); assay: ELISA on BSA-Compound 1, purified antibody
[2] = target: T2, biotinylated Compound 1 (biotinylated …); assay: BIAcore 2000, biotinylated Compound 1 on sensor tip SA, antibody at 4 µg/ml
Procedure: In order to measure the binding activity in more detail, the binding activity of various purified antibodies was measured using BIAcore 2000 (manufactured by BIACORE) as follows. In this case, HBS-EP (manufactured by BIACORE) was used as the buffer for diluting samples and for the measurement. First, 5 μl of 0.05 μg/ml solution of Compound 1 as a biotinylated CCR4 partial peptide was added to a sensor tip SA (manufactured by BIACORE) at a flow rate of 5 μl/minute and immobilized on the sensor tip.
To the prepared biotinylated compound 1 -immobilized sensor tip, 20 μl of 4 μg/ml solution of each of the purified antibodies was added at a flow rate of 5 μl/minute, and after completion of the addition, the dissociation reaction was monitored for 4 minutes and then the sensor tip surface was regenerated by adding 5 μl of 10 mM HCl twice. In this way, a binding reaction curve (sensorgram) for Compound 1 was obtained.

[3] = target: T3, human CC chemokine receptor 4 (CCR4) on …; assay: flow cytometry on CCR4/EL-4 cells, antibody at 10 µg/ml
Procedure: Into a 96 well plate, 2×10⁵ or more of CCR4/EL-4 cells, CCR4-high-expressing cells obtained in Reference Example 3, were dispensed. An antibody solution was prepared by diluting each of the purified antibodies and a human immunoglobulin (manufactured by Welfide) for preventing nonspecific staining to give concentrations of 10 μg/ml and 3.75 mg/ml, respectively, with a buffer for FACS, and the antibody solution was added at 100 μl/well and allowed to react for 30 minutes in ice. As a negative control, 10 μg/ml of an anti-human IL-5 receptor a chain antibody (WO 97/10354) was used. After washing twice with 200 μl/well of the buffer for FACS, a PE-labeled anti-human IgG antibody (manufactured by Coulter) diluted 100 times was added at 50 μl/well. After the reaction in ice under shading and subsequent washing three times with 200 μl/well of the buffer for FACS, the reaction product was suspended in 500 μl of the buffer for FACS and the fluorescence intensity was measured using a flow cytometer.

[4] = target: T1, BSA-Compound 1 (human CCR4 …); assay: ELISA on BSA-Compound 1, COS-7 culture supernatant
Procedure: Into a 96 well ELISA plate (manufactured by Greiner), 0.05 μg/ml of the prepared conjugate was dispensed in at 50 μl/well and allowed to stand at 4° C. overnight for adsorption. After washing with PBS, PBS containing 1% BSA (hereinafter referred to as “1% BSA-PBS”) was added thereto at 100 μl/well and allowed to react at room temperature for 1 hour to block the remaining active groups. After washing each well with PBS containing 0.05% Tween 20 (hereinafter referred to as “Tween-PBS”), a culture supernatant of the transformant was added at 50 μl/well and allowed to react at room temperature for 1 hour. After the reaction and subsequent washing of each well with Tween-PBS, a peroxidase-labeled goat anti-human IgG(γ) antibody solution (manufactured by American Qualex) diluted 6,000 folds with 1% BSA-PBS was added as a secondary antibody solution in 50 μl/well portions and allowed to react at room temperature for 1 hour After the reaction and subsequent washing with Tween-PBS, an ABTS substrate solution (a solution prepared by dissolving 0.55 g of […] ammonium in 1 liter of 0.1 M citrate buffer (pH 4.2) and adding 1 μl/ml hydrogen peroxide just before use) was added at 50 μl/well to develop color, and the reaction was stopped 20 minutes thereafter by adding 5% SDS solution at 50 μl/well. Thereafter, absorbance at 415 nm was measured.

Binder | binding result [1] | binding result [2] | binding result [3] | binding result [4]
anti-CCR4 CDR-grafted antibody Ga10LV1 (antibody, human IgG1, V domains shown, Tested as COS-7 supernatant and as purified antibody from YB2/0; also called pKM2160Ga10LV1) VH: EVQLVESGGDLVQPGRSLRLSCAASGFIFSNYGMSWVRQAPGKGLEWVATISSASTYSYYPDSVKGRFTISRDNAKNSLYLQMNSLRVEDTALYYCARHSDGNFAFGYWGQGTLVTVSS VL: DVVMTQSPLSLPVTPGEPASISCRSSRNIVHINGDTYLEWYLQKPGQSPQLLIYKVSNRFSGVPDRFSGSGSGTDFTLKISRVEAEDVGVYYCFQGSLLPWTFGQGTKVEIK | binds | binds | binds | 
anti-CCR4 CDR-grafted antibody Ga10LV3 (antibody, human IgG1, V domains shown, Tested as COS-7 supernatant and as purified antibody from YB2/0; also called pKM2160Ga10LV3) VH: EVQLVESGGDLVQPGRSLRLSCAASGFIFSNYGMSWVRQAPGKGLEWVATISSASTYSYYPDSVKGRFTISRDNAKNSLYLQMNSLRVEDTALYYCARHSDGNFAFGYWGQGTLVTVSS VL: DVLMTQSPLSLPVTPGEPASISCRSSRNIVHINGDTYLEWYLQKPGQSPQLLIYKVSNRFSGVPDRFSGSGSGTDFTLKISRVEAEDVGVYYCFQGSLLPWTFGQGTKVEIK | binds | binds | binds | 
anti-CCR4 CDR-grafted antibody Ga13LV1 (antibody, human IgG1, V domains shown, Tested as COS-7 supernatant and as purified antibody from YB2/0; also called pKM2160Ga13LV 1) VH: EVQLVESGGDLVQPGRSLRLSCAASGFIFSNYGMSWVRQAPDKRLEWVATISSASTYSYYPDSVKGRFTISRDNAKNSLYLQMNSLRVEDTALYYCGRHSDGNFAFGYWGQGTLVTVSS VL: DVVMTQSPLSLPVTPGEPASISCRSSRNIVHINGDTYLEWYLQKPGQSPQLLIYKVSNRFSGVPDRFSGSGSGTDFTLKISRVEAEDVGVYYCFQGSLLPWTFGQGTKVEIK |  | binds | binds | binds
anti-CCR4 CDR-grafted antibody Ga11LV3 (antibody, human IgG1, V domains shown, Tested as COS-7 supernatant and as purified antibody from YB2/0; also called pKANTEX2160Ga11LV3; antibody of producing cell KM8760 (FERM BP-8130)) VH: EVQLVESGGDLVQPGRSLRLSCAASGFIFSNYGMSWVRQAPGKGLEWVATISSASTYSYYPDSVKGRFTISRDNAKNSLYLQMNSLRVEDTALYYCGRHSDGNFAFGYWGQGTLVTVSS VL: DVLMTQSPLSLPVTPGEPASISCRSSRNIVHINGDTYLEWYLQKPGQSPQLLIYKVSNRFSGVPDRFSGSGSGTDFTLKISRVEAEDVGVYYCFQGSLLPWTFGQGTKVEIK | binds | binds | binds | 
anti-CCR4 CDR-grafted antibody Ga13LV3 (antibody, human IgG1, V domains shown, Tested as COS-7 supernatant and as purified antibody from YB2/0; also called pKM2160Ga13LV3) VH: EVQLVESGGDLVQPGRSLRLSCAASGFIFSNYGMSWVRQAPDKRLEWVATISSASTYSYYPDSVKGRFTISRDNAKNSLYLQMNSLRVEDTALYYCGRHSDGNFAFGYWGQGTLVTVSS VL: DVLMTQSPLSLPVTPGEPASISCRSSRNIVHINGDTYLEWYLQKPGQSPQLLIYKVSNRFSGVPDRFSGSGSGTDFTLKISRVEAEDVGVYYCFQGSLLPWTFGQGTKVEIK |  | binds | binds | binds

The next lines start with the values.

binding result [1] | binding result [2] | binding result [3] | binding result [4] | Binder
binds | binds | binds |  | anti-CCR4 CDR-grafted antibody Ga11LV1 (antibody, human IgG1, V domains shown, Tested as COS-7 supernatant and as purified antibody from YB2/0; also called pKM2160Ga11 LV1) VH: EVQLVESGGDLVQPGRSLRLSCAASGFIFSNYGMSWVRQAPGKGLEWVATISSASTYSYYPDSVKGRFTISRDNAKNSLYLQMNSLRVEDTALYYCGRHSDGNFAFGYWGQGTLVTVSS VL: DVVMTQSPLSLPVTPGEPASISCRSSRNIVHINGDTYLEWYLQKPGQSPQLLIYKVSNRFSGVPDRFSGSGSGTDFTLKISRVEAEDVGVYYCFQGSLLPWTFGQGTKVEIK
binds | binds | binds |  | anti-CCR4 CDR-grafted antibody Ga12LV3 (antibody, human IgG1, V domains shown, Tested as COS-7 supernatant and as purified antibody from YB2/0; also called pKANTEX2160Ga12LV3; antibody of producing cell KM8759 (FERM BP-8129)) VH: EVQLVESGGDLVQPGRSLRLSCAASGFIFSNYGMSWVRQAPDKRLEWVATISSASTYSYYPDSVKGRFTISRDNAKNSLYLQMNSLRVEDTALYYCARHSDGNFAFGYWGQGTLVTVSS VL: DVLMTQSPLSLPVTPGEPASISCRSSRNIVHINGDTYLEWYLQKPGQSPQLLIYKVSNRFSGVPDRFSGSGSGTDFTLKISRVEAEDVGVYYCFQGSLLPWTFGQGTKVEIK
binds | binds | binds |  | anti-CCR4 CDR-grafted antibody Ga12LV1 (antibody, human IgG1, V domains shown, Tested as COS-7 supernatant and as purified antibody from YB2/0; also called pKM2160Ga12LV1) VH: EVQLVESGGDLVQPGRSLRLSCAASGFIFSNYGMSWVRQAPDKRLEWVATISSASTYSYYPDSVKGRFTISRDNAKNSLYLQMNSLRVEDTALYYCARHSDGNFAFGYWGQGTLVTVSS VL: DVVMTQSPLSLPVTPGEPASISCRSSRNIVHINGDTYLEWYLQKPGQSPQLLIYKVSNRFSGVPDRFSGSGSGTDFTLKISRVEAEDVGVYYCFQGSLLPWTFGQGTKVEIK

From patent US20030175273A1 (Kyowa Kirin, published 2003)
